In US20100298539A1 (ALLIGATOR BIOSCIENCE, published 2010):

Columns and labels:
[1] = biological target: T1, Chemotaxis Inhibitory Protein of Staphylococcus aureus (CHIPS), wildtype, amino acids 1-121 (Staphylococcus aureus, UniProt A6QIG7 29-149); assay: competition: CHIPS given iv (0.1 mg/kg) against the binding of FITC labelled anti-CD88 mAb to C5aR on gated blood neutrophils, flow cytometry [B) (cont.]
[2] = biological target: T1, Chemotaxis Inhibitory Protein of …; assay: competition: CHIPS given iv (0.1 mg/kg) against the binding of FITC-fMLP to FPR on gated blood neutrophils, flow cytometry [A) (cont.]

B1: human C5a receptor (C5aR) (receptor)
chain: MDSFNYTTPDYGHYDDKDTLDLNTPVDKTSNTLRVPDILALVIFAVVFLVGVLGNALVVWVTAFEAKRTINAIWFLNLAVADFLSCLALPILFTSIVQHHHWPFGGAACSILPSLILLNMYASILLLATISADRFLLVFKPIWCQNFRGAGLAWIACAVAWGLALLLTIPSFLYRVVREEYFPPKVLCGVDYSHDKRRERAVAIVRLVLGFLWPLLTLTICYTFILLRTWSRRATRSTKTLKVVVAVVASFFIFWLPYQVTGIMMSFLEPSSPTFLLLKKLDSLCVSFAYINCCINPIIYVVAGQGFQGRLRKSLPSLLRNVLTEESVVRESKSFTRSTVDTMAQKTQAV
notes: whole, on cells; also called CD88; U937/C5aR cells
[1]
  binding result: binds

B2: human formylated peptide receptor (FPR) (receptor)
chain: METNSSLPTNISGGTPAVSAGYLFLDIITYLVFAVTFVLGVLGNGLVIWVAGFRMTHTVTTISYLNLAVADFCFTSTLPFFMVRKAMGGHWPFGWFLCKFVFTIVDINLFGSVFLIALIALDRCVCVLHPVWTQNHRTVSLAKKVIIGPWVMALLLTLPVIIRVTTVPGKTGTVACTFNFSPWTNDPKERINVAVAMLTVRGIIRFIIGFSAPMSIVAVSYGLIATKIHKQGLIKSSRPLRVLSFVAAAFFLCWSPYQVVALIATVRIRELLQGMYKEIGIAVDVTSALAFFNSCLNPMLYVFMGQDFRERLIHALPASLERALTEDSTQTSDTATNSTLPSAEVELQAK
notes: whole, on cells; also called formyl-peptide-receptor
[2]
  binding result: binds
